Each block holds one binder with its values, some of them ahead of it.
Key:
[1] = biological target: T1, Flag-tagged recombinant bone morphogenetic protein-1 (BMP-1) (UniProt P13497-2 121-730, limits assumed); test: time course of covalent complex formation of 40 nM 35S-BMP-1 with increasing α2M, SDS-PAGE densitometry (method of Enghild et al.)
T1 construct: Prepared as in Scott et al. 1999 (cited); In the Ki and complex-formation experiments it was metabolically labelled with 35S and purified on an anti-FLAG M2 column; also called 35S-radiolabeled BMP-1; recombinant BMP-1; not shown: Flag tag
T1 sequence (looked up): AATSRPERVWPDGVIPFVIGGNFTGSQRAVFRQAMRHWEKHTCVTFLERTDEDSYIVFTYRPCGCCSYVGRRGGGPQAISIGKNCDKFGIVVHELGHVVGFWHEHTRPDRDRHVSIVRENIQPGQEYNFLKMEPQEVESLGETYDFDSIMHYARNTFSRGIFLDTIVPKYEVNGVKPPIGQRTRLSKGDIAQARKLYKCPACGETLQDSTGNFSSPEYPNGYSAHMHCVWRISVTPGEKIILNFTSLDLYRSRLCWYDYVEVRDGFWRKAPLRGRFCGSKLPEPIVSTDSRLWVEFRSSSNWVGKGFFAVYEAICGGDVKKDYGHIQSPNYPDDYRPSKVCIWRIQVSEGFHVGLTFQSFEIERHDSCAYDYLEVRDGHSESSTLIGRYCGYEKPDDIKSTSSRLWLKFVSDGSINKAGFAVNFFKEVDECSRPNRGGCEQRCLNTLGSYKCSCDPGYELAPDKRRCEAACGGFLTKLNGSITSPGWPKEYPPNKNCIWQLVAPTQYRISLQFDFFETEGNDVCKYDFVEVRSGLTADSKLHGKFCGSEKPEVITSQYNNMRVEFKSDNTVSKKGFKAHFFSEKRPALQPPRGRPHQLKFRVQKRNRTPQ
Procedure: 40 nM ³⁵S-labeled BMP-1 was incubated with 20, 40, 80, 160, and 240 nM plasma α₂M, or recombinant wild type α₂M or with 5, 10, 20, 40, and 80 nM b-α₂M at 37° C. in 50 mM Tris-HCl, pH 7.5, 100 mM NaCl and 10 mM CaCl₂. Reactions were stopped at 10, 30, 60, 90 and 120 minutes (plasma α₂M and recombinant wild type α₂M), or at 2, 5, 10, 20 and 30 minutes (b-α₂M) by adding. SDS-PAGE sample buffer and boiling 5 minutes at 95° C. Protein samples were separated on 7.5% acrylamide SDS-PAGE gels, which were then treated with EN³HANCE (DuPont) and exposed to film. Percentages of BMP-1 incorporated into high molecular weight complexes were determined by densitometry and kinetic parameters were determined essentially via the method of Enghild J, et al, “Interaction of human rheumatoid synovial collagenase (matrix metalloproteinase 1) and stromelysin (matrix metalloproteinase 3) with human alpha 2-macroglobulin and chicken ovostatin. Binding kinetics and identification of matrix metalloproteinase cleavage sites,” J. Biol. Chem. 264:8779-8785 (1989).
To obtain a quantitative comparison of the rates of interaction of BMP-1 with the various wild type and mutant forms of α₂M, we employed the methodology of Enghild et al., supra, which involves quantification of covalent proteinase-α₂M complex formation, subsequent to incubation of radiolabeled proteinase with α₂M.

[2] = biological target: T1, Flag-tagged recombinant bone …; test: cell-based or functional assay

Ki [1]: 0.0252 µM | inhibition of BMP-1 pCP activity (cleavage of 3H-radiolabeled type I procollagen), IC50 [2]: 4.8 nM
B1: human α2-macroglobulin from plasma (Sigma-Aldrich) (other)
chain: SVSGKPQYMVLVPSLLHTETTEKGCVLLSYLNETVTVSASLESVRGNRSLFTDLEAENDVLHCVAFAVPKSSSNEEVMFLTVQVKGPTQEFKKRTTVMVKNEDSLVFVQTDKSIYKPGQTVKFRVVSMDENFHPLNELIPLVYIQDPKGNRIAQWQSFQLEGGLKQFSFPLSSEPFQGSYKVVVQKKSGGRTEHPFTVEEFVLPKFEVQVTVPKIITILEEEMNVSVCGLYTYGKPVPGHVTVSICRKYSDASDCHGEDSQAFCEKFSGQLNSHGCFYQQVKTKVFQLKRKEYEMKLHTEAQIQEEGTVVELTGRQSSEITRTITKLSFVKVDSHFRQGIPFFGQVRLVDGKGVPIPNKVIFIRGNEANYYSNATTDEHGLVQFSINTTNVMGTSLTVRVNYKDRSPCYGYQWVSEEHEEAHHTAYLVFSPSKSFVHLEPMSHELPCGHTQTVQAHYILNGGTLLGLKKLSFYYLIMAKGGIVRTGTHGLLVKQEDMKGHFSISIPVKSDIAPVARLLIYAVLPTGDVIGDSAKYDVENCLANKVDLSFSPSQSLPASHAHLRVTAAPQSVCALRAVDQSVLLMKPDAELSASSVYNLLPEKDLTGFPGPLNDQDDEDCINRHNVYINGITYTPVSSTNEKDMYSFLEDMGLKAFTNSKIRKPKMCPQLQQYEMHGPEGLRVGFYESDVMGRGHARLVHVEEPHTETVRKYFPETWIWDLVVVNSAGVAEVGVTVPDTITEWKAGAFCLSEDAGLGISSTASLRAFQPFFVELTMPYSVIRGEAFTLKATVLNYLPKCIRVSVQLEASPAFLAVPVEKEQAPHCICANGRQTVSWAVTPKSLGNVNFTVSAEALESQELCGTEVPSVPEHGRKDTVIKPLLVEPEGLEKETTFNSLLCPSGGEVSEELSLKLPPNVVEESARASVSVLGDILGSAMQNTQNLLQMPYGCGEQNMVLFAPNIYVLDYLNETQQLTPEIKSKAIGYLNTGYQRQLNYKHYDGSYSTFGERYGRNQGNTWLTAFVLKTFAQARAYIFIDEAHITQALIWLSQRQKDNGCFRSSGSLLNNAIKGGVEDEVTLSAYITIALLEIPLTVTHPVVRNALFCLESAWKTAQEGDHGSHVYTKALLAYAFALAGNQDKRKEVLKSLNEEAVKKDNSVHWERPQKPKAPVGHFYEPQAPSAEVEMTSYVLLAYLTAQPAPTSEDLTSATNIVKWITKQQNAQGGFSSTQDTVVALHALSKYGAATFTRTGKAAQVTIQSSGTFSSKFQVDNNNRLLLQQVSLPELPGEYSMKVTGEGCVYLQTSLKYNILPEKEEFPFALGVQTLPQTCDEPKAHTSFQISLSVSYTGSRSASNMAIVDVKMVSGFIPLKPTVKMLERSNHVSRTEVSSNHVLIYLDKVSNQTLSLFFTVLQDVPVRDLKPAIVKVYDYYETDEFAIAEYNAPCSKDLGNA
notes: Bought plasma protein; also called plasma α2M; serum α2M

Ki [1]: 0.0395 µM | pCP inhibitory activity, IC50 [2]: 133 nM
B2: recombinant wild type α2-macroglobulin (FLAG-tagged) (other, not shown: small tags and cut ends)
chain: B1 chain
notes: Expressed in 293 T-REx cells with the native signal peptide replaced by the BM40 signal peptide; also called rα2M; recombinant α2M
